Reference: the RNAGym collection of RNA variant scans (doi:10.7554/elife.80360)

B1: Twister Ribozyme (parent)
chain: AACACUGCCAAUGCCGGUCCCAAGCCCGGAUAAAAGUGGAGGGGGCGG

Variants of: B1
Assay: self-cleavage, relative activity (ratio to wild type); higher = more cleavage; co-transcriptional
For GACACUGCCAAUGCCGGUCCCAAGCCCGGAUAAAAGUGGAGGGGGCGC [A1G G48C], the self-cleavage was 0.524. Variant UACACUGCCAAUGCCGGUCCCAAGCCCGGAUCAAAGUGGAGGGGGCGG [A1U A32C] has a self-cleavage of 0.057. UACACUGCCAAUGCCGGUCCCAAGCCCGGAUUAAAGUGGAGGGGGCGG [A1U A32U] gave a self-cleavage of 0.0613. UACACUGCCAAUGCCGGUCCCAAGCCCGGAUGAAAGUGGAGGGGGCGG [A1U A32G] showed a self-cleavage of 0.0499. Variant UACACUGCCAAUGCCGGUCCCAAGCCCGGAUAAAUGUGGAGGGGGCGG [A1U A35U] has a self-cleavage of 0.0666. UACACUGCCAAUGCCGGUCCCGAGCCCGGAUAAAAGUGGAGGGGGCGG [A1U A22G] gave a self-cleavage of 0.0451. In the case of UACACUGCCAAUGCCGGUCCCUAGCCCGGAUAAAAGUGGAGGGGGCGG [A1U A22U], the self-cleavage is reported as 0.0726. Variant GACACUGCCAAUGCCGGUCCCAAGCCCGGAUAAAAGUGGAGGGAGCGG [A1G G44A] has a self-cleavage of 0.309. GACACUGCCAAUGCCGGACCCAAGCCCGGAUAAAAGUGGAGGGGGCGG [A1G U18A] gave a self-cleavage of 0.509. Work on GACACUGCCAAUGCCGGGCCCAAGCCCGGAUAAAAGUGGAGGGGGCGG [A1G U18G] yielded a self-cleavage of 0.136. In the case of GACACUGCCAAUGCCGGCCCCAAGCCCGGAUAAAAGUGGAGGGGGCGG [A1G U18C], the self-cleavage is reported as 0.335. For GACACUGCCAAUGCCGGUCCCAAGCCCGGAUAAAAGUGGAGGGGUCGG [A1G G45U], the self-cleavage was 0.274. Variant UACACUGCCAAUGCCGGUCCCAAGCCCGGAUAAAAGUGGCGGGGGCGG [A1U A40C] has a self-cleavage of 0.0671. Work on GACACUGCCAAUGCCGGUCCCAAGCCCCGAUAAAAGUGGAGGGGGCGG [A1G G28C] yielded a self-cleavage of 0.466. GACACUGCCAAUGCCGGUCCCAAGCCCAGAUAAAAGUGGAGGGGGCGG [A1G G28A] showed a self-cleavage of 0.406. In the case of UACACUGCAAAUGCCGGUCCCAAGCCCGGAUAAAAGUGGAGGGGGCGG [A1U C9A], the self-cleavage is reported as 0.0518. UAUACUGCCAAUGCCGGUCCCAAGCCCGGAUAAAAGUGGAGGGGGCGG [A1U C3U] showed a self-cleavage of 0.0886. Variant UAGACUGCCAAUGCCGGUCCCAAGCCCGGAUAAAAGUGGAGGGGGCGG [A1U C3G] has a self-cleavage of 0.0927. Variant GACACUGCCAAUGCCGGUCCCAAGCCCGGAUAAAAGUGGAAGGGGCGG [A1G G41A] has a self-cleavage of 0.176. Work on GACACUGCCAAUGCCGGUCCCAAGCCCGGAUAAAAGUGGACGGGGCGG [A1G G41C] yielded a self-cleavage of 0.186. UACACUGCCAAUGCCGGUCCCAAGCCCGGAUAAGAGUGGAGGGGGCGG [A1U A34G] showed a self-cleavage of 0.0704. Variant UACACUGCCAAUGCCGGUCCCAAGCCCGGAUAAUAGUGGAGGGGGCGG [A1U A34U] has a self-cleavage of 0.0731. GACACUGCCAAUGCCGGUCCCAAGCCCGGAUAAAAUUGGAGGGGGCGG [A1G G36U] showed a self-cleavage of 0.204. Variant GACACUGCCAAUGCCGGUCCCAAGCCCGGAUAAAAAUGGAGGGGGCGG [A1G G36A] has a self-cleavage of 0.252. For GACACUGCCAAUGCCGCUCCCAAGCCCGGAUAAAAGUGGAGGGGGCGG [A1G G17C], the self-cleavage was 0.128. GACACUGCCAAUGCCGUUCCCAAGCCCGGAUAAAAGUGGAGGGGGCGG [A1G G17U] gave a self-cleavage of 0.221. Variant UACACUGCCAAUGCCGGUCCCAAGCCCGGGUAAAAGUGGAGGGGGCGG [A1U A30G] has a self-cleavage of 0.074. Work on UACACUGCCAAUGCCGGUCCCAAGCCCGGCUAAAAGUGGAGGGGGCGG [A1U A30C] yielded a self-cleavage of 0.0658. UACAUUGCCAAUGCCGGUCCCAAGCCCGGAUAAAAGUGGAGGGGGCGG [A1U C5U] gave a self-cleavage of 0.076. In the case of UACAAUGCCAAUGCCGGUCCCAAGCCCGGAUAAAAGUGGAGGGGGCGG [A1U C5A], the self-cleavage is reported as 0.0587. Variant UACACUGCCAAUGCCGGUCCCAAGCCCGGAUAAAAGUGGAGGGGGCGG [A1U] has a self-cleavage of 0.0597. For GACACUGCCAAUGCCGGUCCCAAGCCCGGAUAAAAGUGGAGGCGGCGG [A1G G43C], the self-cleavage was 0.255. GACACUGCCAAUGCCGGUCCCAAGCCCGGAUAAAAGUUGAGGGGGCGG [A1G G38U] gave a self-cleavage of 0.211. GACACUGCCAAUGCCGGUCCCAAGCCCGGAUAAAAGUCGAGGGGGCGG [A1G G38C] showed a self-cleavage of 0.304. GACACUGCCAAUGCCGGUCCCAAUCCCGGAUAAAAGUGGAGGGGGCGG [A1G G24U] gave a self-cleavage of 0.163. GACACUGCCAAUGCCGGUCCCAAGCCCGUAUAAAAGUGGAGGGGGCGG [A1G G29U] showed a self-cleavage of 0.358. Work on UACACUGCCAAUGCCGGUCCCACGCCCGGAUAAAAGUGGAGGGGGCGG [A1U A23C] yielded a self-cleavage of 0.09. Variant UACACUGCCAAUGCCGGUCCCAGGCCCGGAUAAAAGUGGAGGGGGCGG [A1U A23G] has a self-cleavage of 0.0754. Work on GACACUGCCAAUGCCGGUCCCAAGCCCGGAUAAAAGUGCAGGGGGCGG [A1G G39C] yielded a self-cleavage of 0.122. In the case of GACACUGCCAAUGCCGGUCCCAAGCCCGGAUAAAAGUGAAGGGGGCGG [A1G G39A], the self-cleavage is reported as 0.206. Variant UACCCUGCCAAUGCCGGUCCCAAGCCCGGAUAAAAGUGGAGGGGGCGG [A1U A4C] has a self-cleavage of 0.0725. UACACUGUCAAUGCCGGUCCCAAGCCCGGAUAAAAGUGGAGGGGGCGG [A1U C8U] gave a self-cleavage of 0.087. For UACACUGGCAAUGCCGGUCCCAAGCCCGGAUAAAAGUGGAGGGGGCGG [A1U C8G], the self-cleavage was 0.0353. UACACUGACAAUGCCGGUCCCAAGCCCGGAUAAAAGUGGAGGGGGCGG [A1U C8A] gave a self-cleavage of 0.0697. Variant GACACUGCCAAUGCCGGUCCCAAGCCCGGAUAAAAGAGGAGGGGGCGG [A1G U37A] has a self-cleavage of 0.307. Variant GACACUGCCAAUGCCGGUCCCAAGCCCGGAUAAAAGGGGAGGGGGCGG [A1G U37G] has a self-cleavage of 0.295. Variant UUCACUGCCAAUGCCGGUCCCAAGCCCGGAUAAAAGUGGAGGGGGCGG [A1U A2U] has a self-cleavage of 0.0794. UACACUGCCGAUGCCGGUCCCAAGCCCGGAUAAAAGUGGAGGGGGCGG [A1U A10G] gave a self-cleavage of 0.0651. Variant UACACUGCCAAUGCCGGUCCCAAGCCCGGAUAGAAGUGGAGGGGGCGG [A1U A33G] has a self-cleavage of 0.0708. With UACACUGCCAUUGCCGGUCCCAAGCCCGGAUAAAAGUGGAGGGGGCGG [A1U A11U] the self-cleavage was 0.0684. GACACUGCCAAUGCCGGUCCCAAGCCCGGAUAAAAGUGGAGCGGGCGG [A1G G42C] showed a self-cleavage of 0.251. For GACACUGCCAAUGCCGGUCCCAAGCCCGGAUAAAAGUGGAGUGGGCGG [A1G G42U], the self-cleavage was 0.187. For GACACUGCCAAUGCCGGUCCCAAGCCCGGAUAAAAGUGGAGAGGGCGG [A1G G42A], the self-cleavage was 0.215. Work on GACACUGCCAAUGCCCGUCCCAAGCCCGGAUAAAAGUGGAGGGGGCGG [A1G G16C] yielded a self-cleavage of 0.561.
